Experimental data taken from patent US20250002610A1 (Genmab, published 2025).
Numbering of substitutions follows the chain as printed.

B1: IgG1-DR4-T1014A04-FEAR (antibody, V domains shown)
VH: EVQLVQSGADVKRPGASVKVSCKISGDSFNAYFIHWVRQAPGQGLEWMGWFNPDSGTADSAQKFHGRVTMTRDTSSSTAFLELSRLRSDDTAVYYCVRQHRGNTFAPWGRGTMVTVSS
VL: QSVLTQPPSASGSPGQSVTISCTGTTSDVGGYNYVSWYQQHPGKAPKLMIYGVNQRPSGVPDRFSGSKSGNTASLTVSGLQAEDEADYYCSSYAGSNNWVFGGGTKLTVLG
notes: Prior art DR4 clone (US 7,361,341 B2)
B2: BisG1-b12-FEAL/DR4-chCTB007-FEAR (bispecific antibody, human IgG1, kappa)
heavy 1: QVQLVQSGAEVKKPGASVKVSCQASGYRFSNFVIHWVRQAPGQRFEWMGWINPYNGNKEFSAKFQDRVTFTADTSANTAYMELRSLRSADTAVYYCARVGPYSWDDSPQDNYYMDVWGKGTTVIVSSASTKGPSVFPLAPSSKSTSGGTAALGCLVKDYFPEPVTVSWNSGALTSGVHTFPAVLQSSGLYSLSSVVTVPSSSLGTQTYICNVNHKPSNTKVDKRVEPKSCDKTHTCPPCPAPEFEGGPSVFLFPPKPKDTLMISRTPEVTCVVVAVSHEDPEVKFNWYVDGVEVHNAKTKPREEQYNSTYRVVSVLTVLHQDWLNGKEYKCKVSNKALPAPIEKTISKAKGQPREPQVYTLPPSREEMTKNQVSLTCLVKGFYPSDIAVEWESNGQPENNYKTTPPVLDSDGSFLLYSKLTVDKSRWQQGNVFSCSVMHEALHNHYTQKSLSLSPG
light 1: EIVLTQSPGTLSLSPGERATFSCRSSHSIRSRRVAWYQHKPGQAPRLVIHGVSNRASGISDRFSGSGSGTDFTLTITRVEPEDFALYYCQVYGASSYTFGQGTKLERKRTVAAPSVFIFPPSDEQLKSGTASVVCLLNNFYPREAKVQWKVDNALQSGNSQESVTEQDSKDSTYSLSSTLTLSKADYEKHKVYACEVTHQGLSSPVTKSFNRGEC
heavy 2: EVQLQQSGAELVKPGASVKLSCTASGFNIKDTYMHWVKQRPEQGLEWIGRIDPANGNTKYDPKFQGKATITADTSSNTAYLQLSSLTSEDTAVYYCAYYYVSNAWFTYWGQGTLVTVSAASTKGPSVFPLAPSSKSTSGGTAALGCLVKDYFPEPVTVSWNSGALTSGVHTFPAVLQSSGLYSLSSVVTVPSSSLGTQTYICNVNHKPSNTKVDKRVEPKSCDKTHTCPPCPAPEFEGGPSVFLFPPKPKDTLMISRTPEVTCVVVAVSHEDPEVKFNWYVDGVEVHNAKTKPREEQYNSTYRVVSVLTVLHQDWLNGKEYKCKVSNKALPAPIEKTISKAKGQPREPQVYTLPPSREEMTKNQVSLTCLVKGFYPSDIAVEWESNGQPENNYKTTPPVLDSDGSFFLYSRLTVDKSRWQQGNVFSCSVMHEALHNHYTQKSLSLSPG
light 2: DIQMTQSPASLSVSVGETVTITCRASENIYSNLEWYQQKQGKSPQLLVYAATNLADGVPSRFSGSGSGTQYSLKINSLQSEDFGSYYCQHFWGTWTFGGGTKLEIKRTVAAPSVFIFPPSDEQLKSGTASVVCLLNNFYPREAKVQWKVDNALQSGNSQESVTEQDSKDSTYSLSSTLTLSKADYEKHKVYACEVTHQGLSSPVTKSFNRGEC
notes: Fab-arm exchange of IgG1-b12-FEAL and IgG1-DR4-chCTB007-FEAR
B3: BisG1-FAP5-FEAL/b12-FEAR (bispecific antibody, human IgG1, kappa)
heavy 1: QVQLQQSGAELARPGASVNLSCLASGYTFTNNGINWLKQRTGQGLEWIGEIYPRSTNTLYNEKFKGKATLTADRSSNTAYMELRSLTSEDSAVYFCARTLTAPFAFWGQGTLVTVSSASTKGPSVFPLAPSSKSTSGGTAALGCLVKDYFPEPVTVSWNSGALTSGVHTFPAVLQSSGLYSLSSVVTVPSSSLGTQTYICNVNHKPSNTKVDKRVEPKSCDKTHTCPPCPAPEFEGGPSVFLFPPKPKDTLMISRTPEVTCVVVAVSHEDPEVKFNWYVDGVEVHNAKTKPREEQYNSTYRVVSVLTVLHQDWLNGKEYKCKVSNKALPAPIEKTISKAKGQPREPQVYTLPPSREEMTKNQVSLTCLVKGFYPSDIAVEWESNGQPENNYKTTPPVLDSDGSFLLYSKLTVDKSRWQQGNVFSCSVMHEALHNHYTQKSLSLSPG
light 1: QIVLTQSPAIMSASPGELVTMTCSASSGVNFMHWYQQLSGTSPKRWIFDTSKLASGVPARFSGSGSGTSYSLTISSMEAEDAATYYCQQWSFNPPTFGGGTKLEIKRTVAAPSVFIFPPSDEQLKSGTASVVCLLNNFYPREAKVQWKVDNALQSGNSQESVTEQDSKDSTYSLSSTLTLSKADYEKHKVYACEVTHQGLSSPVTKSFNRGEC
heavy 2: B2 heavy 1 with L415F, K419R
light 2: B2 light 1
notes: Fab-arm exchange of IgG1-FAP5-FEAL and IgG1-b12-FEAR
B4: IgG1-FAPα-FEAL (antibody)
heavy: EVQLLESGGGLVQPGGSPRLSCEASGFTFSSYALSWVRQAPGKGLEWVSAISGSGGGRYYADSVKGRFTISRDNSKNTLFLQMNSLRAEDTAVYYCAKEGYSSSGTYWDHWGQGTLVTVSSASTKGPSVFPLAPSSKSTSGGTAALGCLVKDYFPEPVTVSWNSGALTSGVHTFPAVLQSSGLYSLSSVVTVPSSSLGTQTYICNVNHKPSNTKVDKRVEPKSCDKTHTCPPCPAPEFEGGPSVFLFPPKPKDTLMISRTPEVTCVVVAVSHEDPEVKFNWYVDGVEVHNAKTKPREEQYNSTYRVVSVLTVLHQDWLNGKEYKCKVSNKALPAPIEKTISKAKGQPREPQVYTLPPSREEMTKNQVSLTCLVKGFYPSDIAVEWESNGQPENNYKTTPPVLDSDGSFLLYSKLTVDKSRWQQGNVFSCSVMHEALHNHYTQKSLSLSPG
light: AIQMTQSPSSVSASVGDRVTITCRASQGVSSWLAWYQQKPGRAPKLLIYVASTLQSGVPSRFSGSGSGTDFTLTINSLQPEDFATYYCQQANSFPPTFGQGTRLEMKRTVAAPSVFIFPPSDEQLKSGTASVVCLLNNFYPREAKVQWKVDNALQSGNSQESVTEQDSKDSTYSLSSTLTLSKADYEKHKVYACEVTHQGLSSPVTKSFNRGEC

What was measured:
[1] = biological target: T1, human DR4 (Death Receptor 4), cell surface expressed on human tumor cell lines (human, UniProt O00220 24-468); assay: flow cytometry, MDA-MB-231 cells, N = 1
T1 construct: also called TNFRSF10A; TRAIL-R1
T1 sequence: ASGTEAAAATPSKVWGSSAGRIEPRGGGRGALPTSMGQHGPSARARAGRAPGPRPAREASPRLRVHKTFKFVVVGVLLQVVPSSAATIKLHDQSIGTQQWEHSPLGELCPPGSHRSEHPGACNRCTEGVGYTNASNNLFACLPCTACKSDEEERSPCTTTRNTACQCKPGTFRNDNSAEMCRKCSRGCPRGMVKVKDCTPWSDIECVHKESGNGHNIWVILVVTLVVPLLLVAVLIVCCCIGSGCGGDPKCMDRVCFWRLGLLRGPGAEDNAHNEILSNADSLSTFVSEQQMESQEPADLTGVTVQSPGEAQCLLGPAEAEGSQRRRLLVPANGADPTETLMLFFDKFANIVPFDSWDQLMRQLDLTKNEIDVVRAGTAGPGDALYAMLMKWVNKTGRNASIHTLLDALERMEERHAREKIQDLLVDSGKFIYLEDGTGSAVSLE

[2] = biological target: T1, human DR4 (Death Receptor 4), cell …; assay: flow cytometry, MDA-MB-231 cells, average ± SEM
[3] = biological target: T1, human DR4 (Death Receptor 4), cell …; assay: flow cytometry, MDA-MB-231 cells, N = 2
[4] = biological target: T2, human FAPα (Fibroblast activation protein alpha), cell surface expressed (human, UniProt Q12884 1-760); assay: flow cytometry, human lung fibroblasts, n = 2
T2 construct: Endogenous on human lung fibroblasts and CAFs
T2 sequence: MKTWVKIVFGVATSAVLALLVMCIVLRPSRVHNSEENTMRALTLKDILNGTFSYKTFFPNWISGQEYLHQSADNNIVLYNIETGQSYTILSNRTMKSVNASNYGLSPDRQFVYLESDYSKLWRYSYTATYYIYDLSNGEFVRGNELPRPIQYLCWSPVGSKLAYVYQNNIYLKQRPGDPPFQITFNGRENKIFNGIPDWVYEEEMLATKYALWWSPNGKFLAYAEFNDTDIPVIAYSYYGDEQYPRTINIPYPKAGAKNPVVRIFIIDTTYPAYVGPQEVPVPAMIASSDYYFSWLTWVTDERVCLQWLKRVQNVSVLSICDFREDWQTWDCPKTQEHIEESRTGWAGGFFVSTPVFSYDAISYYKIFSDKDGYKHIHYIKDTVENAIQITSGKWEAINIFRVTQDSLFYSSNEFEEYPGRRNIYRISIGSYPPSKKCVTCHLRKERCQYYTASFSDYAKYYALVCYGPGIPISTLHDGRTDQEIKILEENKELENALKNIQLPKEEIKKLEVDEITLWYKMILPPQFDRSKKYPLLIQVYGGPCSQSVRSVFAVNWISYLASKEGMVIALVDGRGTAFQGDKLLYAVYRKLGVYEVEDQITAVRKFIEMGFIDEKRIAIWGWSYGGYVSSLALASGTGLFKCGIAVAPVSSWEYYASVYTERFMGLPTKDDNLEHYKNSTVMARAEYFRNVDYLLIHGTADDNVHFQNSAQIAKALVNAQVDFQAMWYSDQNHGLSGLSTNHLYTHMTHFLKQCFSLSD
Description: Human lung fibroblasts and CAFs (50,000 cells/well) were seeded in 96-Well round bottom plates (Greiner Bio-one, Cat #650101). Antibody dilutions were prepared using fluorescence-activated cell sorting (FACS) buffer, consisting of phosphate buffer saline (PBS, Lonza, Cat #BE17-517Q)+1% Bovine Serum Albumin (BSA, Roche, Cat #10735086001)+0.02% Sodium Azide (Bio-World, Cat #41920044-3). Plates were centrifuged, supernatant was removed, cells were resuspended in 50 μL of human Fc Block (BD, Cat #564220, diluted 1:100 in FACS buffer) and 50 μL of viability stain TO-PRO-3 Iodide (Thermo Fisher, Cat #T3605, diluted 1: 25,000 in FACS buffer), and incubated for 15 min at 4° C. Plates were washed three times with FACS buffer. Plates were centrifuged, supernatant was removed, cells were resuspended in 50 μL of antibody dilutions (concentration range 90-0.0005 μg/mL, three-fold dilution steps using FACS buffer) of BisG1-FAPα-FERL/DR4-FERR, BisG1-FAPα-FERL/b12-FERR, BisG1-b12-FERL/b12-FERR (top six concentrations only for CAFs culture) or IgG1-FAPα-FERL (top four concentrations only for CAFs culture) and incubated for 30 min at 4° C. Cells were washed three times with FACS buffer and resuspended in 50 μL of Fluorescein isothiocyanate (FITC)-labeled polyclonal antibody goat anti-mouse IgG1 (Jackson Immuno Research, Cat #109-096-097, diluted 1:100 in FACS buffer). […] Antibody binding to viable cells (TO-PRO-3 negative) was analyzed by flow cytometry on a FACSCelesta™ (BD biosciences) and data were processed using FlowJo_v10.8.1 (FlowJo LLC). Geomean fluorescence intensity, gMFI, was determined and visualized using GraphPad Prism. Binding curves were analyzed using nonlinear regression analysis. […]
(§1) Binding of FAPα-targeting monoclonal antibody clones, IgG1-FAPα-FEAL and IgG1-FAP5-FEAL, and bispecific antibodies carrying a binding arm derived from the two FAPα-binding clones (BisG1-FAPα-FEAL/b12-FEAR and BisG1-FAP5-FEAL/b12-FEAR) to human lung fibroblasts, which endogenously express FAPα, was compared and analyzed by flow cytometry.

[5] = biological target: T2, human FAPα (Fibroblast activation …); assay: flow cytometry, human lung fibroblasts, n = 1
Description: Human lung fibroblasts and CAFs (50,000 cells/well) were seeded in 96-Well round bottom plates (Greiner Bio-one, Cat #650101). Antibody dilutions were prepared using fluorescence-activated cell sorting (FACS) buffer, consisting of phosphate buffer saline (PBS, Lonza, Cat #BE17-517Q)+1% Bovine Serum Albumin (BSA, Roche, Cat #10735086001)+0.02% Sodium Azide (Bio-World, Cat #41920044-3). Plates were centrifuged, supernatant was removed, cells were resuspended in 50 μL of human Fc Block (BD, Cat #564220, diluted 1:100 in FACS buffer) and 50 μL of viability stain TO-PRO-3 Iodide (Thermo Fisher, Cat #T3605, diluted 1: 25,000 in FACS buffer), and incubated for 15 min at 4° C. Plates were washed three times with FACS buffer. Plates were centrifuged, supernatant was removed, cells were resuspended in 50 μL of antibody dilutions (concentration range 90-0.0005 μg/mL, three-fold dilution steps using FACS buffer) of BisG1-FAPα-FERL/DR4-FERR, BisG1-FAPα-FERL/b12-FERR, BisG1-b12-FERL/b12-FERR (top six concentrations only for CAFs culture) or IgG1-FAPα-FERL (top four concentrations only for CAFs culture) and incubated for 30 min at 4° C. Cells were washed three times with FACS buffer and resuspended in 50 μL of Fluorescein isothiocyanate (FITC)-labeled polyclonal antibody goat anti-mouse IgG1 (Jackson Immuno Research, Cat #109-096-097, diluted 1:100 in FACS buffer). After 30 min incubation at 4° C., cells were washed twice with FACS buffer and resuspended in FACS buffer. Antibody binding to viable cells (TO-PRO-3 negative) was analyzed by flow cytometry on a FACSCelesta™ (BD biosciences) and data were processed using FlowJo_v10.8.1 (FlowJo LLC). Geomean fluorescence intensity, gMFI, was determined and visualized using GraphPad Prism. Binding curves were analyzed using nonlinear regression analysis. The concentration (pg/mL) at which 50% of the maximal effect was observed (EC₅₀) was derived from the fitted curves.
as §1

Binder	EC50 [1] [µg/mL]	Max MFI (at 90 µg/mL) [1] [MFI]	EC50 [2] [µg/mL]	Max MFI (at 90 µg/mL) [2] [MFI]	EC50 [3] [µg/mL]	Max MFI (at 90 µg/mL) [3] [MFI]	EC50 [4] [µg/mL]	EC50 [5] [µg/mL]
B1	0.45	953	1.25	1280	2.04	1610		
B2	1.61	2950	2.14	2550	2.68	2160		
B3							0.62	0.58
B4								0.014
